Measured values: PMC11888354

Target: nucleosome with Cy5-labeled human histone octamer (H2A(K119C), H2B, H3(C110A), H4) reconstituted on lambda DNA (human) (UniProt P06899)
Experiment: single-molecule fluorescence colocalisation

Substance “Cy3-labeled human linker histone H1.0(S22C) (from UniProt P07305 1-194) (natural protein)” has a nucleosome co-localization dwell time τ slow (with 2 nM Nap1) of 1.1 s.
